In CN106902750A one finds OD450 data, which are given here for one molecule.

Experiment [1] addresses Myc-GST融合蛋白(Myc标签与谷胱甘肽融合的蛋白). The experiment in a line: indirect ELISA, Myc-GST coated at 5 μg/mL, HRP anti-His secondary antibody; heat test at 70℃ for 30 min.
The target in experiment [2] is Myc-GST融合蛋白(Myc标签与谷胱甘肽融合的蛋白). The experiment in a line: indirect ELISA, Myc-GST coated at 5 μg/mL, HRP anti-His secondary antibody; heat test at 90℃ for 30 min.
In experiment [3] the target is Myc-GST融合蛋白(Myc标签与谷胱甘肽融合的蛋白). The experiment in a line: indirect ELISA, Myc-GST coated at 5 μg/mL, HRP anti-His secondary antibody; heat test at 80℃ for 30 min.

B1: 抗c-Myc标签单域重链抗体 (VHH, not shown: small tags and cut ends)
VHH: QLQLVESGGGLVQPGESLTLTCVASGGTLENWDIAWFRQAPGKEREGVAYFSSDGIRNYGDSMRGRFKISRDNAKNTAWLQMNRLSVEDTSTYYCAAKERVGRAWRNDGLYRYWGQGTQVTVSS
With B1, the figures for the OD450 in experiment [1], in experiment [2] and in experiment [3] were 1.5 OD450, 1.2 OD450 and 1.4 OD450, respectively.
